From patent US20130261049A1, “ALPHABODIES SPECIFICALLY BINDING TO CLASS-I VIRAL FUSION PROTEINS AND METHODS FOR PRODUCING THE SAME” (priority 2011, published 2013)
Where two headings read alike, the source gives them in different places.

Experiments:
[1] = test system: HIV strain HXB2 in MT4-X4 cells; assay: microbe, parasite or virus in culture; settings: read-out: 50% inhibition concentration (IC50)
From the text: The virus used in this assay was the laboratory adapted reference strain HXB2 virus using CXCR4 as co-receptor. Cells were infected with 100 TCID50/ml of virus in the presence of three-fold dilutions of Alphabody starting at 2.5 microM. […] MTT is reduced to formazan by living cells. Solubilization of the formazan crystals results in a colored product that can be measured by spectrophotometry at 540 nm. The cellular toxicity of the Alphabodies was monitored in the same assay using the same read-out, i.e. cell survival. As controls, the clinically approved T20 peptide (Fuzeon®, Roche) was used, as well as the CXCR4 antagonist, AMD3100 (Mozobile™, Genzyme).

[2] = test system: HIV strain HXB2 in PBMC; assay: microbe, parasite or virus in culture; settings: read-out: 50% inhibition concentration (IC50)
Experimental: PBMC were infected with 4000 TCID50/ml of virus and added to serial dilutions of scAB_C2 starting at 2 microM. After 7 days, the amplification of the virus in absence and presence of scAB_C2 was monitored by measuring the viral p24 concentration. The maximal p24 concentration was measured when PBMC and virus were incubated without inhibitory molecules and was set at 100% viral amplification. As controls, the clinically approved T20 (Fuzeon®, Roche) was used, as well as the CXCR4 antagonist, AMD3100 (Mozobile™, Genzyme).

[3] = Aggregation tendency (visual inspection, OD 340 nm, SEC profiles, SDS-PAGE); assay type: physicochemical; settings: concentration ranges tested, typically up to 1 μM
Experimental: (§1) However, for these constructs, subcloning of synthetic genes was performed in the pET16b vector (Novagen), instead of in pET22b, in order to have an N-terminal 10-histidine tag.
as §1

[4] = CD thermal denaturation scan in GuHCl; assay type: physicochemical; settings: CD at 222 nm, 11 microM protein in 5 M GuHCl
Experimental: This coding sequence was subcloned into the pET22b vector (Novagen). […] The resulting construct was transformed into the host E. coli strain BL21(DE3) harboring a chromosomal copy of the T7 polymerase gene under control of the lacUV5 promoter (DE3 lysogen). Transformed cells were grown in medium supplemented with ampicillin and protein expression was induced by the addition of IPTG to exponentially growing cultures. Cells containing the expressed Alphabodies were collected by centrifugation and the pellets were resuspended in 50 mM Tris, 500 mM NaCl, pH 7.8. Cells were then disrupted by sonication and spun down for cell debris removal. The cleared supernatants were applied onto a HITrap IMAC HP column (GE Healthcare) loaded with Ni^2+ ions. Bound proteins were eluted by applying an imidazole gradient from 5 to 1000 mM. Alphabody-containing fractions were pooled, concentrated and loaded on a Superdex 75 size exclusion chromatography (SEC) column (GE Healthcare). During this final purification step, the buffer was changed to 50 mM Tris, 150 mM NaCl, pH 7.8.

[5] = target: HIV-1 gp41 HR2-derived biotinylated peptide C36 (HIV-1 HXB2); assay: ELISA, biotinylated peptide on streptavidin plates, sigmoid fit (apparent KD)
[6] = MT4-X4 cells, HXB2 virus, 5 day, cell survival by MTT
[7] = PBMC, HXB2 virus, 7 day, viral p24

Work on `c1cc(CN2CCCNCCNCCCNCC2)ccc1CN1CCCNCCNCCCNCC1` [AMD3100] yielded an IC50 ([1]; Human immunodeficiency virus 1, HXB2, 120 h) of 54 nM and an IC50 ([2]; Human immunodeficiency virus 1, HXB2, PBMC, 168 h) of 97 nM.

For enfuvirtide, the IC50 [1, 6] was 6 nM and the IC50 [2, 7] was 60 nM.

B1: scAB_RsvN1: Alphabody with grafted HRSV N-trimer-like binding groove, SEQ ID No: 71 (protein)
chain: SAEIQKIQSAIASTQQAIASLQNAIYVFTGGSGGSGGMSIEEIQKQIAAIQKQIAAIQKQIYRMTGSGGGGSGMSINEIKKQLLAINKQVVAIAQQVSAMSPSR
modifications: Alphabody ′scAB_RsvN1′ sequence
For B1, the tendency to aggregate [3] was “None of the three Alphabodies showed tendency to aggregate”.

B2: scAB_RsvN2: Alphabody with grafted HRSV N-trimer-like binding groove, SEQ ID No: 72 (protein)
chain: SAAIESTQQAIASIQNAIAVIQQKIYDLTGGSGGSGGMSIEEIQKQIAAIQKQIAAIQKQIYRMTGSGGGGSGMSLLEINKQVVAISQQISAITKQILRMKNTP
modifications: Alphabody ′scAB_RsvN2′ sequence
In the case of B2, the tendency to aggregate [3] is reported as “None of the three Alphabodies showed tendency to aggregate”.

B3: scAB013_C2mut: monofunctional control of scAB_Bis with B-helix mutations only, SEQ ID No: 80 (protein)
chain: MGHHHHHHHHHHSSHIEGRHMSIEEIQKQIAAIQKQIAAIQKQIYRMTGGSGGSGGDMAMYAIQIAILIIQAQIQQIQNEIALMTLGSGGGGSGMSIEEIQKQIAAIQKQIAAIQKQIYRMTP
modifications: Alphabody helix sequence scAB013_C2mut
With B3 the tendency to aggregate [3] was “None of the three Alphabodies showed tendency to aggregate”.

B4: scAB013_C2: gp41 HR2-mimicking Alphabody, SEQ ID No: 69, expressed with C-terminal (His)6 tag (protein)
chain: MSIEEIQKQIAAIQKQIAAIQKQIYRMTGGSSGGSMQMYTIQIQILIIQAQIQQIQNQIELMTLGGSSGGMSIEEIQKQIAAIQKQIAAIQKQIYRMTP
modifications: C-terminal His6 tag; Alphabody ′scAB013_C2′ sequence
In the case of B4, the “transition temperature Tm” value [4] is reported as 72 °C, the IC50 [1, 6] is reported as 62 nM and the IC50 [2, 7] is reported as 218 nM.

B5: scAB_RsvC2: Alphabody with grafted HRSV HR2-like B-helix, SEQ ID No: 75 (protein)
chain: MSIEEIQKQIAAIQKQIAAIQKQIYRMTGGSGGSGGDVQIKIIQSQIYIIQSDILLIQAQISRMTGSGGGGSGMSIEEIQKQIAAIQKQIAAIQKQIYRMTP
modifications: Alphabody ′scAB_RsvC2′ sequence
For B5, the tendency to aggregate [3] was “None of the three Alphabodies showed tendency to aggregate”.

B6: Alphabody scAB013_C2 with C-terminal Leu-Glu-(His)6 tag (designed binder)
chain: MSIEEIQKQIAAIQKQIAAIQKQIYRMTGGSSGGSMQMYTIQIQILIIQAQIQQIQNQIELMTLGGSSGGMSIEEIQKQIAAIQKQIAAIQKQIYRMTPLEHHHHHH
B6 gave a Kd [5] greater than 10000 nM.

B7: scAB_Bis: optimized bispecific single-chain Alphabody binding gp41 HR2 and N-trimer, SEQ ID No: 78 (protein)
chain: MGHHHHHHHHHHSSHIEGRHGSAIQQIQKAIATIQKAIAWIQKKIYMITGGSGGSGGDMAMYAIQIAILIIQAQIQQIQNEIALMTLGSGGGGSGGDIQQIQKQIVAIMKQIVAIVKQISAITP
modifications: Alphabody helix sequence scAB_Bis
With B7 the tendency to aggregate [3] was “None of the three Alphabodies showed tendency to aggregate”.

B8: scAB_Env03mut: monofunctional control of scAB_Bis with A- and C-helix mutations only, SEQ ID No: 79 (protein)
chain: MGHHHHHHHHHHSSHIEGRHGSAIQQIQKAIATIQKAIAWIQKKIYMITGGSGGSGGGSIEEIQKQIAAIQKQIAAIQKQIYAITGSGGGGSGGDIQQIQKQIVAIMKQIVAIVKQISAITP
modifications: Alphabody helix sequence scAB_Env03mut
With B8 the tendency to aggregate [3] was “None of the three Alphabodies showed tendency to aggregate”.
